Source: the supplement of paper PMC9112550, “Optimization of the antimicrobial peptide Bac7 by deep mutational scanning” (BMC Biology, 2022)

The sequences below were run on Escherichia coli TOP10 (assay: shrunken log2 fold change of peptide-encoding DNA abundance (4.5 h post-induction vs induction); higher = less antimicrobial activity (less host growth inhibition)). Settings: time post-induction: 4.5 h; library: site-saturation at positions 5, 18, 19, 20.
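Also: peptides expressed intracellularly from a pBAD plasmid library in pooled LB shake-flask culture, induced with 0.3% L-arabinose, DNA abundance read by NGS, three biological replicates, DESeq2 with apeglm shrinkage.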

Sequence | shrunken log2 fold change
RRIRLRPPRLPRPRPRPLNDPRP | -0.0903
RRIRARPPRLPRPRPRPDSWPRP | 0.508
RRIRQRPPRLPRPRPRPAMYPRP | -0.244
RRIRERPPRLPRPRPRPGVNPRP | 0.0154
RRIRLRPPRLPRPRPRPDKWPRP | 0.0575
RRIRMRPPRLPRPRPRPIITPRP | -0.512
RRIRARPPRLPRPRPRPMTCPRP | -0.29
RRIRCRPPRLPRPRPRPIASPRP | -0.0344
RRIRERPPRLPRPRPRPDKVPRP | -0.121
RRIRWRPPRLPRPRPRPVHPPRP | -0.23
RRIRCRPPRLPRPRPRPYLWPRP | -0.726
RRIRDRPPRLPRPRPRPALSPRP | 0.0869
RRIRQRPPRLPRPRPRPTPGPRP | 0.417
RRIRARPPRLPRPRPRPLGWPRP | 0.951
RRIRGRPPRLPRPRPRPKAWPRP | 0.922
RRIRQRPPRLPRPRPRPVIAPRP | 0.248
RRIRPRPPRLPRPRPRPFGEPRP | 0.0159
RRIRMRPPRLPRPRPRPDTFPRP | 0.403
RRIRVRPPRLPRPRPRPVNHPRP | -0.306
RRIRPRPPRLPRPRPRPFWEPRP | -0.0196
RRIRCRPPRLPRPRPRPNADPRP | 0.342
RRIRSRPPRLPRPRPRPAFFPRP | 0.328
RRIRIRPPRLPRPRPRPLFHPRP | -0.779

Sequence | shrunken log2 fold change
RRIRDRPPRLPRPRPRPYIMPRP | -0.42
RRIRYRPPRLPRPRPRPQDEPRP | -0.0312
RRIRARPPRLPRPRPRPFTYPRP | -0.0975
RRIRERPPRLPRPRPRPVRPPRP | 0.849
RRIRIRPPRLPRPRPRPCAMPRP | -0.424
RRIRRRPPRLPRPRPRPEFQPRP | -0.0288
RRIRFRPPRLPRPRPRPYMYPRP | -0.635
RRIRKRPPRLPRPRPRPLYRPRP | -0.0664
RRIRSRPPRLPRPRPRPRQTPRP | 0.0651
RRIRERPPRLPRPRPRPKGIPRP | -0.000842
RRIRCRPPRLPRPRPRPYVQPRP | -0.113
RRIRGRPPRLPRPRPRPLSGPRP | 0.675
RRIRKRPPRLPRPRPRPRAQPRP | 0.7
RRIRKRPPRLPRPRPRPYDMPRP | -0.0843
RRIRFRPPRLPRPRPRPLGSPRP | 0.192
RRIRRRPPRLPRPRPRPICIPRP | 0.232
RRIRMRPPRLPRPRPRPVCKPRP | 0.222
RRIRFRPPRLPRPRPRPVRSPRP | 0.234
RRIRGRPPRLPRPRPRPLYCPRP | -0.0212
RRIRIRPPRLPRPRPRPIHTPRP | -0.907
RRIRCRPPRLPRPRPRPLGRPRP | -0.151
RRIRERPPRLPRPRPRPPYSPRP | -0.102
RRIRNRPPRLPRPRPRPDMSPRP | 0.000831

Sequence | shrunken log2 fold change
RRIRRRPPRLPRPRPRPRCIPRP | 0.174
RRIRGRPPRLPRPRPRPAPRPRP | 1.85
RRIRCRPPRLPRPRPRPEDRPRP | -0.0137
RRIRIRPPRLPRPRPRPNTTPRP | -0.357
RRIRLRPPRLPRPRPRPNHKPRP | -0.335
RRIRFRPPRLPRPRPRPLWMPRP | -0.0523
RRIRVRPPRLPRPRPRPISYPRP | -0.158
RRIRFRPPRLPRPRPRPDHRPRP | 0.0119
RRIRCRPPRLPRPRPRPNELPRP | -0.171
RRIRQRPPRLPRPRPRPFFNPRP | -0.438
RRIRHRPPRLPRPRPRPSFTPRP | -0.632
RRIRTRPPRLPRPRPRPVAKPRP | 0.111
RRIRVRPPRLPRPRPRPIMQPRP | -0.149
RRIRVRPPRLPRPRPRPPAHPRP | 0.231
RRIRGRPPRLPRPRPRPHPAPRP | 0.853
RRIRRRPPRLPRPRPRPKYEPRP | 0.811
RRIRSRPPRLPRPRPRPWPSPRP | 0.117
RRIRDRPPRLPRPRPRPCTIPRP | -0.23
RRIRWRPPRLPRPRPRPPNPPRP | 0.878
RRIRCRPPRLPRPRPRPRCIPRP | -0.29
RRIRVRPPRLPRPRPRPMYMPRP | -0.748
RRIRDRPPRLPRPRPRPAVGPRP | 0.148
RRIRFRPPRLPRPRPRPTITPRP | -0.513

Sequence | shrunken log2 fold change
RRIRFRPPRLPRPRPRPIDDPRP | -0.548
RRIRVRPPRLPRPRPRPSEKPRP | 0.268
RRIRWRPPRLPRPRPRPINTPRP | -0.494
RRIRVRPPRLPRPRPRPPVKPRP | -0.112
RRIRQRPPRLPRPRPRPRKYPRP | -0.2
RRIRGRPPRLPRPRPRPHEIPRP | 0.0317
RRIRDRPPRLPRPRPRPVKCPRP | -0.117
RRIRQRPPRLPRPRPRPRRIPRP | -0.27
RRIRFRPPRLPRPRPRPCQIPRP | -0.0143
RRIRGRPPRLPRPRPRPVQMPRP | 0.844
RRIRERPPRLPRPRPRPMNNPRP | -0.637
RRIRQRPPRLPRPRPRPNITPRP | -0.495
RRIRMRPPRLPRPRPRPNSCPRP | -0.0381
RRIRKRPPRLPRPRPRPGGYPRP | 0.61
RRIRARPPRLPRPRPRPCNTPRP | -0.0534
RRIRARPPRLPRPRPRPKTWPRP | 0.261
RRIRHRPPRLPRPRPRPACNPRP | -0.155
RRIRFRPPRLPRPRPRPVEYPRP | -0.109
RRIRSRPPRLPRPRPRPQLIPRP | -0.0943
RRIRTRPPRLPRPRPRPFNGPRP | -0.142
RRIRYRPPRLPRPRPRPHREPRP | -0.00804
RRIRWRPPRLPRPRPRPPHEPRP | 0.0628
